Reference: publication PMC5404835

Molecular target: C-peptide-mCherry generated from RINS1 (human)
Experiment: western blot of cell lysate (band size); lysates of MIN6 cells expressing RINS1 (lysis buffer 10 mM Tris/Cl pH 7.5, 150 mM NaCl, 0.5 mM EDTA, 0.5% NP-40), NuPAGE 4-12% Bis-Tris gel, anti-mCherry antibody

C-peptide-mCherry generated from RINS1 (domain or fragment)
stoichiometry N: 2
